Reference: patent US20200055896A1, “SUBSTRATES RECOGNIZED BY FIBROBLAST ACTIVATION PROTEIN (FAP) AND METHODS OF USING THE SAME” (GENENTECH, INC., priority 2017, published 2020)
No end group written: not given here.

Biological target: T1, recombinant mouse FAP (Mus musculus, UniProt P97321)
T1 construct: (residues L26-D760 and L26-D761, respectively); octa-His (N); made in house; host or cells: transiently transfected CHO cells (conditioned media)
T1 sequence (P97321 26-761): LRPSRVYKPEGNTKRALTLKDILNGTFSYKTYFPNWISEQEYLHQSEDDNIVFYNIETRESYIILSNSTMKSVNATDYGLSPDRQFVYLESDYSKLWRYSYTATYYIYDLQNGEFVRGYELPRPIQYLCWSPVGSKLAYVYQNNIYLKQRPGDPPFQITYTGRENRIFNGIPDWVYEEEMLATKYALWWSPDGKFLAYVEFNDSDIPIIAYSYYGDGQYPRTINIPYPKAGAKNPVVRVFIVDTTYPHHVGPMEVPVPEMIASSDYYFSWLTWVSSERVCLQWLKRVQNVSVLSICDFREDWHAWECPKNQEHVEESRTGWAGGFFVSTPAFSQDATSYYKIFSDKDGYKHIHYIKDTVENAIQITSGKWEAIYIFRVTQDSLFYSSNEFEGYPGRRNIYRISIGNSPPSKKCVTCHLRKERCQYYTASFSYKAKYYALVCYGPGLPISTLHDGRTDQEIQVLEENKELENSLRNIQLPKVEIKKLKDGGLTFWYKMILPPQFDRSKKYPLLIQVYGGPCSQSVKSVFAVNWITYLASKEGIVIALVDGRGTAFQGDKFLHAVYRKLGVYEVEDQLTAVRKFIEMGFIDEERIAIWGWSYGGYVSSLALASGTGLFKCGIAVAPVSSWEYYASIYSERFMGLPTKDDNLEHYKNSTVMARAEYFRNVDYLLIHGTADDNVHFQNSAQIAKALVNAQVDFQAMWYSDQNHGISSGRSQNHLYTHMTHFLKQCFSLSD
Experiment: FRET-quench assay: probe cleavage by recombinant mouse FAP
Assay type: biochemical
Settings: 1 nM recombinant mouse FAP; 3 μM peptide
Description: Human prolyl oligopeptidase (PREP, 4308-SE), DPPIV (1180-SE), DPP9 (5419-SE), and DPPII/DPP7 (3438-SE) proteins were purchased from R&D Systems. Human DPP8 (BML-SE527) protein was purchased from Enzo Life Sciences. N-terminal octa-His-tagged human and mouse FAP proteins containing the extracellular domain (residues L26-D760 and L26-D761, respectively) were purified from the conditioned media of transiently-transfected CHO cells, by immobilized metal affinity chromatography (IMAC), followed by size exclusion chromatography (SEC).
Peptides of the region flanking the C-terminal human FGF21 cleavage site (VGPSQG) or a variant with D-alanine at P2 (VaPSQG) were synthesized (Anaspec, Inc.), containing an amine-terminal donor (HyLite Fluor 488 or Cy5.5 for aP NIRF) and a dark quencher-acceptor (QXL 520 or QSY21 for aP NIRF) conjugated to a supplementary C-terminal lysine. ANPFAP (Bioconjugate Chem 23:1704-11) and aP NIRF were synthesized by CPC Scientific (Sunnyvale, Calif.). Assays were conducted at 37° C. in 50 mM HEPES (pH 7.2), 150 mM NaCl, 1 mM EDTA, 0.1 mg/ml BSA. The excitation/emission wavelengths of cleaved peptide are 490/520 nm or 675/695 nm for ANPFAP and aP NIRF. Fluorescence was monitored on a Tecan M1000 Pro plate reader in kinetic mode. […]

GP probe: human FGF21 cleavage-site peptide VGPSQG with amine-terminal HyLite Fluor 488 donor and QXL 520 quencher on supplementary C-terminal lysine ({HyLite Fluor 488}-VGPSQGK(QXL 520))
cleavage by recombinant mouse FAP: cleaved
